Article PMC12474298

Molecular target: HaHV1 UL36h NLS peptide (residues 1491-1500), FITC/Ahx-labelled (haliotid herpesvirus 1 (HaHV1))
Test: fluorescence polarisation

Substance | Kd [nM]
human importin α1 lacking the importin-β binding domain (hIMPα1ΔIBB) (domain or fragment) | 226
human importin α3 lacking the importin-β binding domain (hIMPα3ΔIBB) (domain or fragment) | 193
